Laboratory results: the supplement of paper PMC10567573

B1: PPP2R2C (parent)
chain: YSSSKGSLRLCDMRAAALCDKHSK
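Note: lentivirally expressed fusions sorted by FACS into six bins by GFP to DsRed ratio, PSI derived from sequencing read proportions per bin multiplied by bin number.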

Variants of: B1
Assay: protein stability index of a GFP-peptide fusion (GPS, HEK-293T) (PSI 1-6); higher = more stable
Conditions: c terminus: a fixed tail appended
YSSSKGSLRLCDMRAAALCDNHSK [K21N] showed a protein stability index of 1.9.
With YSSSKGSLRLCDMRAAALCDAHSK [K21A] the protein stability index was 2.35.
With YSSSKGSLRLCDMRAAALCDWHSK [K21W] the protein stability index was 2.12.
YSSSKGSLRLCDMRAAALCDGHSK [K21G] showed a protein stability index of 2.12.
With YSSSKGSLRLCDMRAAALCDEHSK [K21E] the protein stability index was 1.26.
YSSSKGSLRLCDMRAAALCDYHSK [K21Y] gave a protein stability index of 1.95.
Work on YSSSKGSLRLCDMRAAALCDFHSK [K21F] yielded a protein stability index of 1.95.
In the case of YSSSKGSLRLCDMRAAALCDLHSK [K21L], the protein stability index is reported as 1.29.
With YSSSKGSLRLCDMRAAALCDSHSK [K21S] the protein stability index was 2.21.
Work on YSSSKGSLRLCDMRAAALCDRHSK [K21R] yielded a protein stability index of 1.69.
In the case of YSSSKGSLRLCDMRAAALCDVHSK [K21V], the protein stability index is reported as 2.63.
YSSSKGSLRLCDMRAAALCDQHSK [K21Q] showed a protein stability index of 1.82.
With YSSSKGSLRLCDMRAAALCDCHSK [K21C] the protein stability index was 2.48.
YSSSKGSLRLCDMRAAALCDDHSK [K21D] gave a protein stability index of 1.78.
Variant YSSSKGSLRLCDMRAAALCDIHSK [K21I] has a protein stability index of 1.48.
With YSSSKGSLRLCDMRAAALCDTHSK [K21T] the protein stability index was 1.86.
Work on YSSSKGSLRLCDMRAAALCDPHSK [K21P] yielded a protein stability index of 2.79.
Variant YSSSKGSLRLCDMRAAALCDMHSK [K21M] has a protein stability index of 1.96.
YSSSKGSLRLCDMRAAALCDHHSK [K21H] gave a protein stability index of 2.01.
Variant YSSSKGSLRLCDMRAAALCDKDSK [H22D] has a protein stability index of 1.79.
For YSSSKGSLRLCDMRAAALCDKASK [H22A], the protein stability index was 2.02.
Work on YSSSKGSLRLCDMRAAALCDKYSK [H22Y] yielded a protein stability index of 1.91.
YSSSKGSLRLCDMRAAALCDKISK [H22I] showed a protein stability index of 2.22.
In the case of YSSSKGSLRLCDMRAAALCDKMSK [H22M], the protein stability index is reported as 1.7.
Variant YSSSKGSLRLCDMRAAALCDKCSK [H22C] has a protein stability index of 2.17.
In the case of YSSSKGSLRLCDMRAAALCDKESK [H22E], the protein stability index is reported as 3.04.
Work on YSSSKGSLRLCDMRAAALCDKKSK [H22K] yielded a protein stability index of 1.54.
Variant YSSSKGSLRLCDMRAAALCDKNSK [H22N] has a protein stability index of 2.04.
Work on YSSSKGSLRLCDMRAAALCDKPSK [H22P] yielded a protein stability index of 1.16.
For YSSSKGSLRLCDMRAAALCDKQSK [H22Q], the protein stability index was 1.53.
Variant YSSSKGSLRLCDMRAAALCDKSSK [H22S] has a protein stability index of 1.62.
YSSSKGSLRLCDMRAAALCDKRSK [H22R] showed a protein stability index of 1.56.
For YSSSKGSLRLCDMRAAALCDKTSK [H22T], the protein stability index was 2.11.
With YSSSKGSLRLCDMRAAALCDKFSK [H22F] the protein stability index was 1.53.
Variant YSSSKGSLRLCDMRAAALCDKGSK [H22G] has a protein stability index of 2.31.
Work on YSSSKGSLRLCDMRAAALCDKWSK [H22W] yielded a protein stability index of 2.05.
For YSSSKGSLRLCDMRAAALCDKLSK [H22L], the protein stability index was 1.6.
For YSSSKGSLRLCDMRAAALCDKHHK [S23H], the protein stability index was 2.96.
In the case of YSSSKGSLRLCDMRAAALCDKHPK [S23P], the protein stability index is reported as 1.42.
Work on YSSSKGSLRLCDMRAAALCDKHRK [S23R] yielded a protein stability index of 1.78.
Work on YSSSKGSLRLCDMRAAALCDKHFK [S23F] yielded a protein stability index of 2.57.
Work on YSSSKGSLRLCDMRAAALCDKHAK [S23A] yielded a protein stability index of 1.79.
With YSSSKGSLRLCDMRAAALCDKHDK [S23D] the protein stability index was 1.86.
YSSSKGSLRLCDMRAAALCDKHYK [S23Y] gave a protein stability index of 2.52.
For YSSSKGSLRLCDMRAAALCDKHTK [S23T], the protein stability index was 1.88.
With YSSSKGSLRLCDMRAAALCDKHIK [S23I] the protein stability index was 2.01.
In the case of YSSSKGSLRLCDMRAAALCDKHNK [S23N], the protein stability index is reported as 1.43.
YSSSKGSLRLCDMRAAALCDKHLK [S23L] gave a protein stability index of 1.93.
In the case of YSSSKGSLRLCDMRAAALCDKHWK [S23W], the protein stability index is reported as 1.35.
YSSSKGSLRLCDMRAAALCDKHGK [S23G] showed a protein stability index of 1.76.
YSSSKGSLRLCDMRAAALCDKHCK [S23C] gave a protein stability index of 1.12.
In the case of YSSSKGSLRLCDMRAAALCDKHMK [S23M], the protein stability index is reported as 2.19.
Variant YSSSKGSLRLCDMRAAALCDKHQK [S23Q] has a protein stability index of 1.85.
YSSSKGSLRLCDMRAAALCDKHVK [S23V] gave a protein stability index of 2.4.
Work on YSSSKGSLRLCDMRAAALCDKHEK [S23E] yielded a protein stability index of 1.81.
Variant YSSSKGSLRLCDMRAAALCDKHKK [S23K] has a protein stability index of 1.82.
YSSSKGSLRLCDMRAAALCRKHSK [D20R] gave a protein stability index of 3.31.
With YSSSKGSLRLCDMRAAALCQKHSK [D20Q] the protein stability index was 2.33.
For YSSSKGSLRLCDMRAAALCTKHSK [D20T], the protein stability index was 2.18.
Work on YSSSKGSLRLCDMRAAALCWKHSK [D20W] yielded a protein stability index of 2.31.
With YSSSKGSLRLCDMRAAALCVKHSK [D20V] the protein stability index was 2.58.
In the case of YSSSKGSLRLCDMRAAALCIKHSK [D20I], the protein stability index is reported as 2.17.
YSSSKGSLRLCDMRAAALCMKHSK [D20M] gave a protein stability index of 1.98.
Work on YSSSKGSLRLCDMRAAALCSKHSK [D20S] yielded a protein stability index of 1.81.
In the case of YSSSKGSLRLCDMRAAALCNKHSK [D20N], the protein stability index is reported as 2.21.
YSSSKGSLRLCDMRAAALCLKHSK [D20L] showed a protein stability index of 2.05.
Work on YSSSKGSLRLCDMRAAALCYKHSK [D20Y] yielded a protein stability index of 1.96.
Work on YSSSKGSLRLCDMRAAALCKKHSK [D20K] yielded a protein stability index of 2.6.
With YSSSKGSLRLCDMRAAALCPKHSK [D20P] the protein stability index was 2.25.
YSSSKGSLRLCDMRAAALCDKHSW [K24W] showed a protein stability index of 2.51.
With YSSSKGSLRLCDMRAAALCDKHSR [K24R] the protein stability index was 1.9.
For YSSSKGSLRLCDMRAAALCDKHSL [K24L], the protein stability index was 2.13.
YSSSKGSLRLCDMRAAALCDKHSP [K24P] gave a protein stability index of 1.9.
YSSSKGSLRLCDMRAAALCDKHSY [K24Y] gave a protein stability index of 1.52.
Variant YSSSKGSLRLCDMRAAALCDKHSS [K24S] has a protein stability index of 1.65.
Work on YSSSKGSLRLCDMRAAALCDKHSN [K24N] yielded a protein stability index of 2.15.
YSSSKGSLRLCDMRAAALCDKHSV [K24V] showed a protein stability index of 1.74.
For YSSSKGSLRLCDMRAAALCDKHSI [K24I], the protein stability index was 2.06.
In the case of YSSSKGSLRLCDMRAAALCDKHSD [K24D], the protein stability index is reported as 2.22.
With YSSSKGSLRLCDMRAAALCDKHSM [K24M] the protein stability index was 2.11.
Variant YSSSKGSLRLCDMRAAALCDKHSC [K24C] has a protein stability index of 1.21.
For YSSSKGSLRLCDMRAAALCDKHSE [K24E], the protein stability index was 1.96.
In the case of YSSSKGSLRLCDMRAAALCDKHST [K24T], the protein stability index is reported as 2.39.
In the case of YSSSKGSLRLCDMRAAALCDKHSQ [K24Q], the protein stability index is reported as 1.64.
YSSSKGSLRLCDMRAAALCDKHSF [K24F] gave a protein stability index of 1.36.
For YSSSKGSLRLCDMRAAALCDKHSA [K24A], the protein stability index was 1.85.
With YSSSKGSLRLCDMRAAALCDKHSH [K24H] the protein stability index was 1.43.
